Experimental data reported in US20220064329A1 (Novo Nordisk, published 2022).

T1: recombinant human activated Factor VII (FVIIa) (human, UniProt P08709 61-212; P08709 213-466, ten glutamate residues of the Gla domain may be gamma-carboxylated)
T1 sequence 1: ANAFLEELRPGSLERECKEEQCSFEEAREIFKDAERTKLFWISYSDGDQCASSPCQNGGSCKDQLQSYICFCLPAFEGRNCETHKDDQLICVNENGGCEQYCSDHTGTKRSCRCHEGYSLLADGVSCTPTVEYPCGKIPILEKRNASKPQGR
T1 sequence 2: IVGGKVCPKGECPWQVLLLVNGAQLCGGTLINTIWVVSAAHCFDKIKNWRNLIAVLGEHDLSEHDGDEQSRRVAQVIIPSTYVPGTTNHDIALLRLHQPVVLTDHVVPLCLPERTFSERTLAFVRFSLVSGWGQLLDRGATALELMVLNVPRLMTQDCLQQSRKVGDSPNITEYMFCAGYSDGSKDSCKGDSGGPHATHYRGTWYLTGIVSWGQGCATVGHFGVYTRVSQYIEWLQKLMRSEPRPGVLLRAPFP

T2: recombinant human activated Factor VII (FVIIa) (human, UniProt P08709 61-212; P08709 213-466, Gla domain: ten glutamate residues may be gamma-carboxylated)
T2 construct: two-chain form after cleavage between Arg152 and Ile153; light chain (Gla, EGF domains) and heavy chain (protease domain) tethered by a disulfide bond; also called rFVIIa; human FVIIa
T2 sequence 1: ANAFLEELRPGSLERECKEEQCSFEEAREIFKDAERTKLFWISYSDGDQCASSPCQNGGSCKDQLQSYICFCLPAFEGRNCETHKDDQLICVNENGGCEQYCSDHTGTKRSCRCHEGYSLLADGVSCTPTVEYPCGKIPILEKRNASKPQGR
T2 sequence 2: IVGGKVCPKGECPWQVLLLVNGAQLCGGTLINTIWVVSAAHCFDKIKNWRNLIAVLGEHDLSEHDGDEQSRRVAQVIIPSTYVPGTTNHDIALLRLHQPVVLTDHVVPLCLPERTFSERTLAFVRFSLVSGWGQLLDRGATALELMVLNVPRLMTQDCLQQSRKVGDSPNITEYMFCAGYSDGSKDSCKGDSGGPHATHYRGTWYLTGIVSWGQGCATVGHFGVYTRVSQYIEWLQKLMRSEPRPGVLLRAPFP


Each binder was assayed against T1, recombinant human activated Factor VII … (assay: cell-based or functional assay).

| AT inhibition (kinh %) [%] | TGT activity (%% FVIIa) [%] | Binder |
| --- | --- | --- |
| 119 | 103 | mAb0077(OA) (antibody, human IgG4 S228P, kappa, one-armed (OA) antibody, constant domain type E (Duobody); murine VL/VH; also called monovalent 11F2) heavy: not shown light: DIVMTQSPATLSVTAGDRVSLSCRASQGISDYLHWYQQKSHESPRLLIKYTSQPVSGIPSRFSGSGSGSEFTLSINSVEPEDVGVYYCQNGHSFPLTFGAGTKLELKRTVAAPSVFIFPPSDEQLKSGTASVVCLLNNFYPREAKVQWKVDNALQSGNSQESVTEQDSKDSTYSLSSTLTLSKADYEKHKVYACEVTHQGLSSPVTKSFNRGEC VESKYGPPCPPCPAPEFLGGPSVFLFPPKPKDTLMISRTPEVTCVVVDVSQEDPEVQFNWYVDGVEVHNAKTKPREEQFNSTYRVVSVLTVLHQDWLNGKEYKCKVSNKGLPSSIEKTISKAKGQPREPQVYTLPPSQEEMTKNQVSLTCLVKGFYPSDIAVEWESNGQPENNYKTTPPVLDSDGSFLLYSKLTVDKSRWQEGNVFSCSVMHEALHNHYTQKSLSLSLGK |

What follows are binders tested against T1, recombinant human activated Factor VII … (assay: SPR (Biacore)).

| Kd [nM] | Binder |
| --- | --- |
| 0.041 | mAb0077(OA) (antibody, human IgG4 S228P, kappa, one-armed (OA) antibody, constant domain type E (Duobody); murine VL/VH; also called monovalent 11F2) heavy: not shown light: DIVMTQSPATLSVTAGDRVSLSCRASQGISDYLHWYQQKSHESPRLLIKYTSQPVSGIPSRFSGSGSGSEFTLSINSVEPEDVGVYYCQNGHSFPLTFGAGTKLELKRTVAAPSVFIFPPSDEQLKSGTASVVCLLNNFYPREAKVQWKVDNALQSGNSQESVTEQDSKDSTYSLSSTLTLSKADYEKHKVYACEVTHQGLSSPVTKSFNRGEC VESKYGPPCPPCPAPEFLGGPSVFLFPPKPKDTLMISRTPEVTCVVVDVSQEDPEVQFNWYVDGVEVHNAKTKPREEQFNSTYRVVSVLTVLHQDWLNGKEYKCKVSNKGLPSSIEKTISKAKGQPREPQVYTLPPSQEEMTKNQVSLTCLVKGFYPSDIAVEWESNGQPENNYKTTPPVLDSDGSFLLYSKLTVDKSRWQEGNVFSCSVMHEALHNHYTQKSLSLSLGK |
| 600 | biAb0245 (bispecific antibody, human IgG4 S228P, kappa, also called anti-FVII(a)/anti-TLT-1 bispecific antibody of mAb0873 and mAb1076) heavy 1: DVQLQESGPGLVKPSQTLSLTCTVSGYSISSDSAWSWIRQPPGKGLEWIGYIQYSGSTNYNPSLKSRVTISRDTSKNQFSLKLSSVTAADTAVYYCARSVNYYGNSFWVDPWGQGTLVTVSSASTKGPSVFPLAPCSRSTSESTAALGCLVKDYFPEPVTVSWNSGALTSGVHTFPAVLQSSGLYSLSSVVTVPSSSLGTKTYTCNVDHKPSNTKVDKRVESKYGPPCPPCPAPEFLGGPSVFLFPPKPKDTLMISRTPEVTCVVVDVSQEDPEVQFNWYVDGVEVHNAKTKPREEQFNSTYRVVSVLTVLHQDWLNGKEYKCKVSNKGLPSSIEKTISKAKGQPREPQVYTLPPSQEEMTKNQVSLTCLVKGFYPSDIAVEWESNGQPENNYKTTPPVLDSDGSFLLYSKLTVDKSRWQEGNVFSCSVMHEALHNHYTQKSLSLSLGK light 1: DIVMTQSPATLSVTAGDRVSLSCRASQGISDYLHWYQQKSHESPRLLIKYTSQPVSGIPSRFSGSGSGSEFTLSINSVEPEDVGVYYCQNGHSFPLTFGAGTKLELKRTVAAPSVFIFPPSDEQLKSGTASVVCLLNNFYPREAKVQWKVDNALQSGNSQESVTEQDSKDSTYSLSSTLTLSKADYEKHKVYACEVTHQGLSSPVTKSFNRGEC heavy 2: not shown light 2: DIVMTQTPLSSPVTLGQPASISCRSSQSLVHRQGNTYFHWLQQRPGQPPRLLIYKVSNRFSGVPDRFSGSGAGTDFTLKISRVEAEDVGVYYCSQSTHVPYTFGQGTKLEIKRTVAAPSVFIFPPSDEQLKSGTASVVCLLNNFYPREAKVQWKVDNALQSGNSQESVTEQDSKDSTYSLSSTLTLSKADYEKHKVYACEVTHQGLSSPVTKSFNRGEC |
| 0.06 | biAb0001 (bispecific antibody, human IgG4 S228P, kappa, also called anti-FVII(a)/anti-TLT-1 bispecific antibody of mAb0865 and mAb1076) heavy 1: QVQLQESGPGLVKPSQTLSLTCTVSGYSISSDSAWSWIRQPPGKGLEWIGYIQYSGSTNYNPSLKSRVTISRDTSKNQFSLKLSSVTAADTAVYYCARSVNYYGNSFAVGYWGQGTLVTVSSASTKGPSVFPLAPCSRSTSESTAALGCLVKDYFPEPVTVSWNSGALTSGVHTFPAVLQSSGLYSLSSVVTVPSSSLGTKTYTCNVDHKPSNTKVDKRVESKYGPPCPPCPAPEFLGGPSVFLFPPKPKDTLMISRTPEVTCVVVDVSQEDPEVQFNWYVDGVEVHNAKTKPREEQFNSTYRVVSVLTVLHQDWLNGKEYKCKVSNKGLPSSIEKTISKAKGQPREPQVYTLPPSQEEMTKNQVSLTCLVKGFYPSDIAVEWESNGQPENNYKTTPPVLDSDGSFLLYSKLTVDKSRWQEGNVFSCSVMHEALHNHYTQKSLSLSLGK light 1: EIVLTQSPATLSLSPGERATLSCRASQGISDYLHWYQQKPGEAPRLLIKYTSQPATGIPARFSGSGSGTDFTLTISSLEPEDFAVYYCQNGHSFPLTFGQGTKLEIKRTVAAPSVFIFPPSDEQLKSGTASVVCLLNNFYPREAKVQWKVDNALQSGNSQESVTEQDSKDSTYSLSSTLTLSKADYEKHKVYACEVTHQGLSSPVTKSFNRGEC heavy 2: not shown light 2: DIVMTQTPLSSPVTLGQPASISCRSSQSLVHRQGNTYFHWLQQRPGQPPRLLIYKVSNRFSGVPDRFSGSGAGTDFTLKISRVEAEDVGVYYCSQSTHVPYTFGQGTKLEIKRTVAAPSVFIFPPSDEQLKSGTASVVCLLNNFYPREAKVQWKVDNALQSGNSQESVTEQDSKDSTYSLSSTLTLSKADYEKHKVYACEVTHQGLSSPVTKSFNRGEC |

What follows are binders tested against T2, recombinant human activated Factor VII … (assay: Bio-Layer Interferometry (Fortebio), antibody on anti-human tips, FVIIa 25-200 nM).
Method: All steps were performed in running buffer (20 mM HEPES buffer (pH 7.4), 150 mM NaCl, 5 mM CaCl2, 0.03% Tween 20, 1 mg/ml IgG-free BSA) at […] Antibodies were captured on anti-human tips (AHC, Fortebio) for 3 min at a concentration of 10 ug/ml. This was followed by a 3 min incubation to establish a baseline. Following this, association was monitored for 3 min using four different concentrations of VIIa (25 nm, 50 nM, 100 nM, and 200 nM), followed by a 3 mi dissociation. Sensorgrams were analysed using Fortebio data analysis software.

| Kd [nM] | Binder |
| --- | --- |
| 5.8 | mAb0123 (antibody, human IgG4 S228P, kappa, V domains shown, humanized 11F2 variant, first round) VH: DVQLQESGPGLVEPSQTLSLTCTVSGYSITSDSAWSWIRQFPGKKLEWMGYIQYSGSTNYNPSLKSRVTISRDTSKNQFSLKLSSVTAEDTAVYYCARSVNYYGNSFAVGYWGQGTSVTVSS VL: EIVLTQSPATLSLSPGERATLSCRASQGISSYLHWYQQKPGEAPRLLIKYTSQPATGIPARFSGSGSGTDFTLTISSLEPEDVGVYYCQNGHSFPLTFGAGTKLELKR |
| 2.2 | mAb0129 (antibody, human IgG4 S228P, kappa, V domains shown, humanized 11F2 variant, first round) VH: DVQLQESGPGLVEPSQTLSLTCTVSGYSITSDSAWSWIRQFPGKKLEWMGYIQYSGSTNYNPSLKSRVTISRDTSKNQFSLKLSSVTAEDTAVYYCARSVNYYGNSFAVGYWGQGTSVTVSS VL: EIVLTQSPATLSLSPGERATLSCRASQGISDYLHWYQQKPGEAPRLLIKYASQPATGIPARFSGSGSGTDFTLTISSLEPEDVGVYYCQNGHSFPLTFGAGTKLELKR |
| 1.7 | mAb0128 (antibody, human IgG4 S228P, kappa, V domains shown, humanized 11F2 variant, first round) VH: DVQLQESGPGLVEPSQTLSLTCTVSGYSITSDSAWSWIRQFPGKKLEWMGYIQYSGSTNYNPSLKSRVTISRDTSKNQFSLKLSSVTAEDTAVYYCARSVNYYGNSFAVGYWGQGTSVTVSS VL: EIVLTQSPATLSLSAGERATLSCRASQGISDYLHWYQQKSGEAPRLLIKYTSQPATGIPARFSGSGSGTDFTLTISSLEPEDVGVYYCQNGHSFPLTFGAGTKLELKR |
| 1.7 | mAb0125 (antibody, human IgG4 S228P, kappa, V domains shown, humanized 11F2 variant, first round) VH: DVQLQESGPGLVEPSQTLSLTCTVSGYSITSDSAWSWIRQFPGKKLEWMGYIQYSGSTNYNPSLKSRVTISRDTSKNQFSLKLSSVTAEDTAVYYCARSVNYYGNSFAVGYWGQGTSVTVSS VL: EIVLTQSPATLSLSPGERATLSCRASQGISDYLHWYQQKPGEAPRLLIKYTSQPATGIPARFSGSGSGTDFTLTISSLEPEDVAVYYCQNGHSFPLTFGAGTKLELKR |
| 1.8 | mAb0124 (antibody, human IgG4 S228P, kappa, V domains shown, humanized 11F2 variant, first round) VH: DVQLQESGPGLVEPSQTLSLTCTVSGYSITSDSAWSWIRQFPGKKLEWMGYIQYSGSTNYNPSLKSRVTISRDTSKNQFSLKLSSVTAEDTAVYYCARSVNYYGNSFAVGYWGQGTSVTVSS VL: EIVLTQSPATLSLSPGERATLSCRASQGISDYLHWYQQKPGQAPRLLIKYTSQPATGIPARFSGSGSGTDFTLTISSLEPEDVGVYYCQNGHSFPLTFGAGTKLELKR |
| 2.5 | mAb0126 (antibody, human IgG4 S228P, kappa, V domains shown, humanized 11F2 variant, first round) VH: DVQLQESGPGLVEPSQTLSLTCTVSGYSITSDSAWSWIRQFPGKKLEWMGYIQYSGSTNYNPSLKSRVTISRDTSKNQFSLKLSSVTAEDTAVYYCARSVNYYGNSFAVGYWGQGTSVTVSS VL: EIVLTQSPATLSLSPGERATLSCRASQGVSDYLHWYQQKPGEAPRLLIKYTSQPATGIPARFSGSGSGTDFTLTISSLEPEDVGVYYCQNGHSFPLTFGAGTKLELKR |
| 1.8 | mAb0130 (antibody, human IgG4 S228P, kappa, V domains shown, humanized 11F2 variant, first round) VH: DVQLQESGPGLVEPSQTLSLTCTVSGYSITSDSAWSWIRQFPGKKLEWMGYIQYSGSTNYNPSLKSRVTISRDTSKNQFSLKLSSVTAEDTAVYYCARSVNYYGNSFAVGYWGQGTSVTVSS VL: EIVLTQSPATLSLSPGERATLSCRASQGISDYLHWYQQKPGEAPRLLIKYTSQPATGIPARFSGSGSGTDFTLTISSLEPEDFGVYYCQNGHSFPLTFGAGTKLELKR |
